Test results published in paper PMC9287719.
Where two headings read alike, the source gives them in different places.

Legend:
[1] = target: Recombinant FcγRIIa (H131) with C-terminus Biotin (human) (UniProt P12318)
[2] = target: Recombinant FcγRIIa (R131) with C-terminus Biotin (human) (UniProt P12318)
[3] = target: Recombinant FcγRI with C-terminus Biotin (human) (UniProt P12314)
[4] = target: Recombinant FcγRIIb with C-terminus Biotin (human) (UniProt P31994); assay: other; qualitative only
[5] = target: Recombinant FcγRIIIa (F158) with C-terminus Biotin (human) (UniProt P08637); assay: split reporter (BiFC, NanoBiT); homogeneous competition assay in solution for FcγRIIa and FcγRIIIa variants: sample competes with IgG-LgBiT tracer for FcγR-Biotin mixed 1:1 with Streptavidin-SmBiT; 30–60 min; PBS with 10% superblock; IC50 equivalent to apparent affinity (KD)
Recombinant FcγRIIIa (F158) with C-terminus Biotin (human), sequence (P08637 17-208): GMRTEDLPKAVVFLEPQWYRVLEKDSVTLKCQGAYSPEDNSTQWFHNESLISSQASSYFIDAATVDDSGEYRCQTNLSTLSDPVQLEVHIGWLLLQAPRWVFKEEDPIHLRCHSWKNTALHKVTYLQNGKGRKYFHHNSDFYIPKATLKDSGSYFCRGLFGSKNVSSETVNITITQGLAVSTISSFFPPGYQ

[6] = target: Recombinant FcγRIIIa (V158) with C-terminus Biotin (human); assay: as above
[7] = target: Recombinant FcγRIIa (H131) with C-terminus Biotin (human) (UniProt P12318); assay: as above
[8] = target: Recombinant FcγRIIa (R131) with C-terminus Biotin (human); assay: as above
[9] = target: Recombinant FcγRIIa (R131) with C-terminus Biotin (human) (UniProt P12318); remark: listed apart in the source
[10] = target: Recombinant FcγRIIb with C-terminus Biotin (human) (UniProt P31994)
[11] = target: Recombinant FcγRIIIa (F158) with C-terminus Biotin (human) (UniProt P08637)
[12] = target: Recombinant FcγRIIa (H131) with C-terminus Biotin (human) (UniProt P12318); remark: listed apart in the source
[13] = target: Recombinant FcγRIIIa (V158) with C-terminus Biotin (human)
Target sequence in this assay (P08637 17-208 F176V): as the sequence (P08637 17-208) above, with F160V counted along it

[14] = target: Recombinant FcγRIIa (H131) with C-terminus Biotin (human) (UniProt P12318); remark: listed apart in the source
[15] = target: Recombinant FcγRIIa (R131) with C-terminus Biotin (human) (UniProt P12318); remark: listed apart in the source
[16] = target: Recombinant FcγRI with C-terminus Biotin (human) (UniProt P12314); remark: listed apart in the source
[17] = target: Recombinant FcγRIIIa (V158) with C-terminus Biotin (human); remark: listed apart in the source
Target sequence in this assay (P08637 17-208 F176V): as the sequence (P08637 17-208) above, with F160V counted along it

Human IgG2, sequence (P01859 whole entry, looked up): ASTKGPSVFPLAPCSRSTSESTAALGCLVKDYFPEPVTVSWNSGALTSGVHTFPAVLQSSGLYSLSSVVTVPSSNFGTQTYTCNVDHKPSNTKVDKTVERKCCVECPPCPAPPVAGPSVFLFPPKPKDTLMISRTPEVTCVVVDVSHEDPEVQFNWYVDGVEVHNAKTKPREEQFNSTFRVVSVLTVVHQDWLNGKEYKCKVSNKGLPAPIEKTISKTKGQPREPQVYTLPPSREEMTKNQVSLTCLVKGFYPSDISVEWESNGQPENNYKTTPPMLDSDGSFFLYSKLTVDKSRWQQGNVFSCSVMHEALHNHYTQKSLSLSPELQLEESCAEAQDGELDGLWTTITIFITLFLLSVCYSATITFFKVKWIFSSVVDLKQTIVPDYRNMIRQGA
Recombinant FcγRIIa (R131) with C-terminus Biotin (human) (UniProt P12318), sequence (P12318 34-217 H167R): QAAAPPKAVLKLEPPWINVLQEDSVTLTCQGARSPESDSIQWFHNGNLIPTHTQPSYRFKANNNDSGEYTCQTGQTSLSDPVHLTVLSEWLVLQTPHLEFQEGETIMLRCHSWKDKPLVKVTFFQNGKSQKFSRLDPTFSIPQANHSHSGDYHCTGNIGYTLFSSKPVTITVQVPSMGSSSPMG
Recombinant FcγRIIa (H131) with C-terminus Biotin (human), sequence (P12318 34-217): as the sequence (P12318 34-217 H167R) above, with R134H counted along it
Human IgG4, sequence (P01861 whole entry, looked up): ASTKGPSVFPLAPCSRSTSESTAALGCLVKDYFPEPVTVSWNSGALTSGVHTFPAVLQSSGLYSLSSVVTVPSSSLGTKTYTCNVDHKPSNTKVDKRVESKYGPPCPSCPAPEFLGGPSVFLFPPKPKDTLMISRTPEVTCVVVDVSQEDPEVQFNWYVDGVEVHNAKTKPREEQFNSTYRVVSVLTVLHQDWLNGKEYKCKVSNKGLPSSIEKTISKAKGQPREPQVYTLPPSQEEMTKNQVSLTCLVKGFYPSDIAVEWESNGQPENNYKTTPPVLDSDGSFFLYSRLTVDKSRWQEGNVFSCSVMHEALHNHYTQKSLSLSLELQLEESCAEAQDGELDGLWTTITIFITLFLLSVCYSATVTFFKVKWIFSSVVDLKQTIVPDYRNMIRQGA
Recombinant FcγRI with C-terminus Biotin (human), sequence (P12314 16-292): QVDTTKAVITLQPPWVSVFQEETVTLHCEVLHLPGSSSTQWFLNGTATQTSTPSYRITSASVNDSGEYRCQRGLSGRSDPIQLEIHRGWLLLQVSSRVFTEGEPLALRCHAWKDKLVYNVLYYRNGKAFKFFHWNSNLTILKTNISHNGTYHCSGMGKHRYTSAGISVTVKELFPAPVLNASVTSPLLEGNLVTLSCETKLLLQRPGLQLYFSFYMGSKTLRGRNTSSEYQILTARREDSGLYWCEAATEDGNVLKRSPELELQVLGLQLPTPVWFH
Recombinant FcγRIIb with C-terminus Biotin (human), sequence (P31994 43-217): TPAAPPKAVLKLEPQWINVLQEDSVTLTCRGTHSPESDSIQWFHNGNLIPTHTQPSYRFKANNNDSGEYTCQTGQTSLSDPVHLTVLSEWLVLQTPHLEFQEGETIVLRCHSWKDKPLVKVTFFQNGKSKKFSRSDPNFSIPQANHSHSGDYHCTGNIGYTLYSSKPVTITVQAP

Human IgG4 (from UniProt P01861) gave an IC50 [1] of 102 nM, an IC50 [2] of 128 nM and an IC50 [3] of 1.07 nM. It also gave an IC50 [4] of 573 nM.
In the case of “Human IgG (human polyclonal IgG) (antibody)”, the IC50 [5] is reported as 107 nM, the IC50 [6] is reported as 18.4 nM and the IC50 [7] is reported as 11.3 nM. For the same substance, the IC50 [8] was 42.6 nM.
Gammagard (from UniProt P01857) showed an IC50 [9] of 178 nM, an IC50 [10] of 1120 nM and an IC50 [11] of 95.5 nM. For the same substance, the IC50 [12] was 55.8 nM and the IC50 [13] was 12.5 nM.
Human IgG2 (from UniProt P01859) gave an IC50 [14] of 77.1 nM, an IC50 [15] of 519 nM and an IC50 [16] of 29.4 nM. It also gave an IC50 [17] of 2040 nM.
